B1: sBCMA-mAb2 (antibody, V domains shown)
VH: QSLEESGGDLVKPGASLTLTCTASGFSFSSSYWICWVRQAPGKGLEWIACIYAGSGDFTYYASWAKGRFTVSKTSSTTVTLQMTSLTAADTATYFCARDAATSYYSHYFTLWGPGTLVTVSS
VL: DVVMTQTPASVSEPVGGTVTIKCQASQSIYSGLAWYQQKPGQPPKLLIYDASDLASGVPSRFSGSGYGTEFTLTISGVQCEDAATYYCQVTHYESGVPLGGGTEVVVEG
notes: Rabbit monoclonal IgG; also called rabbit monoclonal anti-sBCMA antibody sBCMA-mAb2
B2: sBCMA-mAb3 (antibody, V domains shown)
VH: QEQLEESGGGLVKPGGTLTLTCKASGMDFSSYYYMCWVRQAPGKGLEWIACIFSDSGGHTAYASWAEGRFTISKTSSTTVTLQMTSLTVADTATYFCARDRRDVVYIRDLWGPGTLVTVSS
VL: ALVMTQTPSPVSAAVGGTVTISCQSSESVYNNNALAWYQQKPGQPPKLLIYGASSLASGVPSRFKGSGSGTQFTLTISDLECDDAATYYCAGYKRYNNDGHAFGGGTEVVVKG
notes: Rabbit monoclonal IgG; also called rabbit monoclonal anti-sBCMA-mAb3
B3: sBCMA-mAb1 (antibody, V domains shown)
VH: QSLEESGGDLVKPGAFLTLTCTASGFSFSSGYYICWVRQAPGKGLEWIACIYTGSSGSTDYASWAKGRFTISKTSSTTVTLQMTSLTAADTATYFCARDYGHSYWNLWGPGTLVTVSS
VL: DIVMTQTPASVEAAVGGTVTIKCQASEDISSRLAWYQQKPGQPPKLLIGAASTLASGVSSRFKGSRSGTEYTLTISDLECADAATYYCLGDYYVSSYGNAFGGGTEVVVKG
notes: Rabbit monoclonal IgG, used as purified recombinant antibody; also called rabbit monoclonal anti-sBCMA antibody sBCMA-mAb1; sBCMA-mAbl

What was measured:
soluble BCMA (sBCMA) = target: T1, soluble BCMA (sBCMA) (human, UniProt Q02223 1-54); assay: SPR (Biacore 3000, 25 C); mAb captured on goat anti-rabbit IgG Fc, sBCMA as analyte; 1:1 Langmuir with mass transfer
T1 construct: also called BCMA ECD; Biotinylated BCMA
T1 sequence: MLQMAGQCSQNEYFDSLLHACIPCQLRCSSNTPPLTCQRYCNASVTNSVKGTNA
Experimental: Experiments were performed using a Biacore 3000 (GE Healthcare) at 25° C. The running buffer was HBS-P (10 mM HEPES, pH7.4, 150 mM NaCl, 0.05% Surfactant P-20)+0.1% BSA, and kinetics were performed at a high flowrate (100 μl/min). 10 mM Glycine, pH 1.7 was used for regeneration.
Surface preparation: A goat anti-rabbit IgG Fc (Prod. #111-005-046 from Jackson Research) was diluted 1/20 in NaAcetate, pH 5 and covalently coupled to the sample and reference Fc (Fc 1) of a CMS sensor chip using amine coupling. Individual mAbs were diluted in HBS-P+0.1% BSA and captured on either Fc 2, 3, or 4 at 0.3 μg/ml for kinetic analysis of binding to sBCMA.
Interaction Parameters: sBCMA (1.19 mg/ml stock) was injected as analyte at 600 nM, 300 nM, 150 nM, 75 nM, 37.5 nM, 18.8 nM, and 9.4 nM with the 75 nM concentrated run twice to gage reproducibility. The association rate was monitored for 2.5 minutes. The dissociation time was 20 minutes to determine more accurate kinetics for those mAbs with slower off-rates. The data was double background referenced in that both a reference Fc and a 0 nM analyte concentration were subtracted from the data. A 1:1 Langmuir binding model with mass transfer was used from the Biacore evaluation software.

sBCMA-mAb1 = target: B3; assay: Octet: sBCMA-mAb3 on captured sBCMA-mAb1 without BCMA (sensor blocked with irrelevant IgG)

Binder	Kd (soluble BCMA (sBCMA))	koff (soluble BCMA (sBCMA))	kon (soluble BCMA (sBCMA))	binding result (sBCMA-mAb1)
B1	377 nM	0.0185 s⁻¹	49200 M⁻¹ s⁻¹	–
B2	4.5 nM	0.00405 s⁻¹	901000 M⁻¹ s⁻¹	no binding (tested: not given)
B3	0.103 nM	6.47e-05 s⁻¹	630000 M⁻¹ s⁻¹	–
